Experimental data taken from paper PMC3189933, “Acylpeptide Hydrolase Inhibition as Targeted Strategy to Induce Proteasomal Down-Regulation” (PLoS ONE, 2011).

How the values were obtained:
[1] = biological target: Acylpeptide hydrolase from Sulfolobus solfataricus (Sulfolobus solfataricus)
[2] = biological target: Acylpeptide hydrolase from Sulfolobus solfataricus (Sulfolobus solfataricus); assay: enzyme inhibition kinetics (Lineweaver-Burk); APEHSs pre-incubated with the peptide 30 min at 80°C, 25 mM Tris-HCl pH 7.5, substrate acetyl-Leu-pNA; competitive inhibition

Chain of Acylpeptide hydrolase from Sulfolobus solfataricus (Sulfolobus solfataricus) (Q7LX61 entry or part of it): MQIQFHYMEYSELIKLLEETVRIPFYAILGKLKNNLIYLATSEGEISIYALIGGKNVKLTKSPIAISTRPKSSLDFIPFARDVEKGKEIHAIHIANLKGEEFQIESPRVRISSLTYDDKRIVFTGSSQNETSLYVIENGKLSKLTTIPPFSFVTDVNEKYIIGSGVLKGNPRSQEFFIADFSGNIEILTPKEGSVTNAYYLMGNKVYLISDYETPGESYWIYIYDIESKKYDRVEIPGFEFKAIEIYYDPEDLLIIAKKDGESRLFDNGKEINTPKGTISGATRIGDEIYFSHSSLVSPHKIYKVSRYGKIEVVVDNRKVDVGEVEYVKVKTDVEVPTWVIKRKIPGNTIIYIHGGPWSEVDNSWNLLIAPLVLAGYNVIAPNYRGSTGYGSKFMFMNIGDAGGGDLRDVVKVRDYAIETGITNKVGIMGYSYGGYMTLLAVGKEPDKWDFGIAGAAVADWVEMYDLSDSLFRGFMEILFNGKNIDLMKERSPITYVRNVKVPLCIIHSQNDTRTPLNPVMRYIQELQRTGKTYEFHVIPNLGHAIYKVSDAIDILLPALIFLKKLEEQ

IC50 of inhibition of APEHSs activity (substrate Ac-Leu-pNA) [1]: 9.8 µM | Ki [2]: 1000 nM
Binder: H-TILLEIKNINAD-NH2 [SsCEI 2]
